Article PMC5389708 (Nucleic Acids Research, 2017)
Substitutions are numbered along the chain they refer to. In names and notes the source's numbering stands.

B1: gorilla APOBEC3C (enzyme)
chain: MNPQIRNPMKAMYPGTFYFQFKNLWEANDRNETWLCFTVEGIKRRSVVSWKTGVFRNQVDSETHCHAERCFLSWFCDDILSPNTNYQVTWYTSWSPCPECAGEVAEFLARHSNVKLTIFTARLYYFQYPCYQVGLRSLSQEGVAVEIMDYEDFKYCWENFVYNDNEPFKPWKGLKTNFRLLKRRLRESLQ
B2: human APOBEC3C S188I/N115K (enzyme)
chain: B1 chain with N85K, E99D, V133E, S188I
B3: gorilla APOBEC3C S188I (enzyme)
chain: B1 chain with S188I
B4: human APOBEC3C N115K (enzyme)
chain: B1 chain with N85K, E99D, V133E
B5: human APOBEC3C S188I (enzyme)
chain: B1 chain with N85K, E99D, K115N, V133E, S188I
B6: gorilla APOBEC3C K115N (enzyme)
chain: B1 chain with K115N

Columns and labels:
[1] = molecular target: chimpanzee APOBEC3C (chimpanzee); test: cross-linking
[2] = molecular target: chimpanzee APOBEC3C (chimpanzee); test: SEC
[3] = molecular target: chimpanzee APOBEC3C S188I (chimpanzee); test: cross-linking
[4] = molecular target: the molecule itself; test: cross-linking
[5] = molecular target: the molecule itself; test: SEC

Row | Molecule | stoichiometry N [4] | further results
1 | chimpanzee APOBEC3C (enzyme) |  | stoichiometry N [1]: 2; stoichiometry N [2]: 2
2 | chimpanzee APOBEC3C S188I (enzyme) |  | stoichiometry N [3]: 2
3 | B1 | 2 | 
4 | B2 | 2 | 
5 | B3 | 2 | 
6 | B4 |  | stoichiometry N [5]: 2
7 | B5 | 2 | 
8 | B6 | 2 | 
